Reference: patent publication US20200369755A1 (PROTHENA BIOSCIENCES, published 2020)
Where no end group is shown, it is not given here.

Key:
recombinant human tau = target: T1, recombinant human tau (human, UniProt P10636-6 1-383, limits assumed); test: SPR (Biacore T200): antibody captured on an anti-mouse chip, recombinant human tau 10-0.14 nM as analyte, global 1:1 fit
T1 construct: also called human recombinant tau without polyhistidine tag; native, untagged protein
Procedure: Methods: SPR analysis was performed using a Biacore T200 to determine the binding kinetics of murine antibodies to recombinant human tau. To prepare a sensor surface, anti-mouse antibody (GE Life Sciences) was immobilized on sensor chip CM5 via amine coupling, and antibody was captured at a level to ensure maximum binding of 50 RU. Various concentrations of recombinant tau ranging from 10-0.14 nM were passed over the captured ligand at a flow rate of 50 μL/min in running buffer (HBS+0.05% P-20, 1 mg/mL BSA), for 180 sec association and 900 sec dissociation. Data were double-referenced to both an irrelevant sensor not containing antibody ligand, and 0 nM analyte concentration to account for the dissociation of ligand from the capture moiety. Data was then analyzed using a global 1:1 fit.

[1] = target: T2, biotinylated tau peptide, amino acid residues 262-276 of SEQ ID NO:3 (human, also: biotinylated, site not given here); test: peptide ELISA, epitope mapping of hybridoma positives
T2 construct: One of the overlapping peptides spanning 4R0N human tau
T2 peptide: SKCGSLGNIHHKPGG
Procedure: Additional peptides were used to model potential post-translational modifications of the C- and N-terminal ends of the protein.
Biotinylated peptides were bound to separate wells of a streptavidin-coated ELISA plate. The plate was blocked and treated with murine 3D6, followed by incubation with a horseradish peroxidase-conjugated anti-mouse antibody. After thorough washing, OPD was applied to the plate and allowed to develop. The plate was read at 450 nm absorbance. Background subtraction was performed with absorbance values from wells containing no primary antibody, and a threshold for positive binding was set to 0.2 absorbance units. […] (FIG. 1)

[2] = target: biotinylated recombinant tau (UniProt P10636-6 1-383, limits assumed, biotinylated); test: competition ELISA: inhibition of biotinylated tau binding to plate-bound low molecular weight heparin
Procedure: To test the ability of murine and humanized 3D6 variants to interrupt tau interaction with heparin, ELISA plates coated with low molecular weight heparin were first blocked with 2% BSA in PBS for 2h at room temperature. Plates were washed with TBST. After blocking, plates were incubated with biotinylated recombinant tau along with indicated concentrations of unlabeled antibody in 1% BSA/PBS for one hour at room temperature. Plates were again washed, and then incubated with streptavidin-HRP in 0.1% BSA/PBS for 45 min. Plates were then washed and developed with OPD, and absorbance was measured at 490 nm. Inhibition curves were analyzed using a 4-parameter log fit.

[3] = target: T3, tau peptide NVKSKIGSTENLKHQPG (SEQ ID NO:184) (human); test: peptide microarray, 3D6 at 10 ug/ml
T3 construct: Printed on a microarray together with all its single substitution variants; also called probe peptide
T3 peptide: NVKSKIGSTENLKHQPG
Procedure: The assay exchanged each of the amino acids in the peptide sequence with all 20 amino acids, to determine with a high degree of accuracy the core epitope for 3D6. The microarray was printed with all peptides in triplicate, along with HA control peptides to ensure assay performance. To perform the assay, the array was incubated with 3D6 (10 ug/ml) in blocking buffer, washed with PBS-T, followed by incubation with a goat anti-mouse secondary antibody conjugated to DyLight-680. In addition, the microarray was incubated with anti-HA antibody 12CA5 directly conjugated to DyLight-800. Microarrays were scanned using a LiCor scanner, and intensities of triplicates were averaged.

T1 sequence (P10636 other isoform, or with tags, fused parts or gaps limits assumed): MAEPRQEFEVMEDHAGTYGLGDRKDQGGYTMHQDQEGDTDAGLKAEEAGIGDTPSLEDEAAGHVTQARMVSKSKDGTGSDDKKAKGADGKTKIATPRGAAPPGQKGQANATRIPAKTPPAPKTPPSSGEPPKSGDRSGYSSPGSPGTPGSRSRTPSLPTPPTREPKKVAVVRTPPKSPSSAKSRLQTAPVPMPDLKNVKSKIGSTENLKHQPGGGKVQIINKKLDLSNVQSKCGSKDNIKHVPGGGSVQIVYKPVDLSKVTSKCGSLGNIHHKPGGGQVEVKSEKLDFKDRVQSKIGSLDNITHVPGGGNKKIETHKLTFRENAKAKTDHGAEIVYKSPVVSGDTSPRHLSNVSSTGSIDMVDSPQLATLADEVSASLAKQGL
biotinylated recombinant tau, sequence (P10636 other isoform, or with tags, fused parts or gaps limits assumed): as above

B1: murine 3D6 monoclonal antibody (antibody, IgG1, V domains shown)
VH: EVQLQQSGADLVRPGALVKLSCKASGFNIKDYYLHWVRQRPEQGLEWIGWIDPENGDTVYDPKFQGKATITADTSSNTAYLQLGSLTSEDTAVYFCSTLDFWGQGTTLTVSS
VL: not shown
notes: Hybridoma-derived mouse antibody; also called m3D6; mouse 3D6
With B1 the Kd (recombinant human tau) was 0.46 nM, the koff (recombinant human tau) was 0.00119 s⁻¹ and the kon (recombinant human tau) was 2.58e+06 M⁻¹ s⁻¹. The binding result [1] was “binds”, the IC50 [2] was 0.409 nM and the binding result [3] was “binds”.
